Measurements: patent publication US20260042834A1 (HBM ALPHA THERAPEUTICS, published 2026)
Read-outs that look alike come from different tables or passages of the source. Each block holds one binder with its values, some of them ahead of it.

How the values were obtained:
human UCN3 peptide [1] = target: T1, human UCN3 peptide (human, UniProt Q969E3 120-157, not fully specified; biotin at N- or C-terminus in the ELISA); assay: ELISA, biotinylated hUCN3 on streptavidin plates
T1 construct: also called hUCN3; hUCN3 (NT Biotin)
T1 peptide (looked up): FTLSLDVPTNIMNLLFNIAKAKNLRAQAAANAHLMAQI
Description: (§1) Streptavidin (Thermo, Cat: 21125) was diluted in PBS with a concentration of 2 μg/mL. 100 μL of diluted streptavidin was added per well to ELISA microplates, and the plates were incubated overnight at 4° C. Plates were blocked with ELISA blocking solution (containing 2% w/v BSA, 0.05% (v/v) Tween-20, pH 7.4 PBS buffer) at 37° C. for 1 hour, and then incubated with either 1 μg/mL hUCN1 (NT Biotin), hUCN1 (CT Biotin), hUCN2 (NT Biotin), hUCN2 (CT Biotin), hUCN3 (NT Biotin), or hUCN3 (CT Biotin) for 1 hour at 37° C. […] 100 μl of TMB Substrate (Biopanda, Cat: TMB-S-003) was added, and the plates were incubated at room temperature for 15 minutes. 100 μL of ELISA stopping solution (Solarbio, Cat #: C1058) was then added to terminate the reaction, and the OD450 nm was determined by an ELISA plate reader (Molecular Devices, Spectra max 384 plus).

human UCN1 peptide = target: T2, human UCN1 peptide (human, UniProt P55089 83-122, not fully specified; biotin at N- or C-terminus in the ELISA); assay: cell-based or functional assay
T2 peptide (looked up): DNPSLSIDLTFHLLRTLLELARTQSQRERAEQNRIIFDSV

human UCN2 peptide [2] = target: T3, human UCN2 peptide (human, UniProt Q96RP3 72-109, limits assumed, not fully specified; biotin at N- or C-terminus in the ELISA); assay: ELISA, biotinylated hUCN2 on streptavidin plates
T3 construct: also called hUCN2; hUCN2 (NT Biotin)
T3 peptide (looked up): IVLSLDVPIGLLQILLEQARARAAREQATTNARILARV
Description: as §1

[3] = target: T4, corticotropin-releasing hormone (CRH) peptide (human and mouse, not fully specified); assay: cell-based or functional assay
T4 peptide: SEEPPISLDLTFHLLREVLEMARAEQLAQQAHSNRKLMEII

biotinylated CRH [4] = target: T5, biotinylated CRH (human and mouse, not fully specified; biotinylated, position not stated); assay: Octet in-tandem, row = 1st mAb; competitor (2nd mAb) PR301777
T5 construct: also called Biotin-CRH; biotin-labeled CRH
T5 peptide: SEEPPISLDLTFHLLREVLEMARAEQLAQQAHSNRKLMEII
Description: (§2) SA sensors (Fortebio, Cat #18-5019) were hydrated in running buffer for 10 mins.

CRH (CT Biotin) [5] = target: T6, CRH (CT Biotin) (human and mouse, C-terminal K-Biotin); assay: ELISA, biotin peptide on streptavidin plate
T6 construct: also called Peptide 4 (CRH-Biotin)
T6 peptide: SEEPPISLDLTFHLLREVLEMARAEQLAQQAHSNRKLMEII
Method in brief: (§3)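 Read-out is absorbance at 450 nm after a stopped TMB reaction of 15 minutes at room temperature. Wells carried streptavidin, coated from a 2 μg/ml PBS solution overnight at 4° C.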

CRH (NT Biotin) [6] = target: T7, CRH (NT Biotin) (human and mouse, not fully specified; biotin at the N-terminus); assay: ELISA, biotin peptide on streptavidin plate
T7 peptide: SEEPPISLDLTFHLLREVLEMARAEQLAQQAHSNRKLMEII
Method in brief: as §3

hUCN1 (NT Biotin) [7] = target: T8, hUCN1 (NT Biotin) (human, UniProt P55089 83-122, biotin at the N-terminus); assay: ELISA, biotin peptide on streptavidin plate
T8 construct: also called human UCN1 (NT biotin)
T8 peptide (looked up): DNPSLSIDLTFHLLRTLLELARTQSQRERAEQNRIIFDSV
Method in brief: as §3

hUCN1 (CT Biotin) = target: T9, hUCN1 (CT Biotin) (human, UniProt P55089 83-122, biotin at the C-terminus); assay: ELISA, biotin peptide on streptavidin plate
T9 construct: also called human UCN1 (CT biotin)
T9 peptide (looked up): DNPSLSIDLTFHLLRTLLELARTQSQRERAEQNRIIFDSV
Method in brief: as §3

N-Terminal CRH = target: T10, N-Terminal CRH (human and mouse, C-terminal K-Biotin); assay: ELISA, biotin peptide on streptavidin plate
T10 construct: also called N-Ter-CRH (CT-Bion)
T10 peptide: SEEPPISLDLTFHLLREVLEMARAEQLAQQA
Method in brief: as §3

biotinylated CRH [8] = target: T5, biotinylated CRH; assay: Octet in-tandem, row = 1st mAb; competitor (2nd mAb) PR005660
Description: as §2

biotinylated CRH [9] = target: T5, biotinylated CRH; assay: Octet in-tandem, row = 1st mAb; competitor (2nd mAb) PR302341-34
Description: as §2

biotinylated CRH [10] = target: T5, biotinylated CRH; assay: Octet in-tandem, row = 1st mAb; competitor (2nd mAb) PR006669
Description: as §2

human UCN3 peptide [11] = target: T1, human UCN3 peptide; assay: ELISA on streptavidin-captured hUCN3 (NT biotin) and hUCN3 (CT biotin), mAb at 100 nM and 10 nM, OD450
Description: as §1

biotinylated CRH [12] = target: T5, biotinylated CRH; assay: Octet in-tandem, row = 1st mAb; competitor (2nd mAb) PR302334
Description: as §2

biotinylated CRH [13] = target: T5, biotinylated CRH; assay: Octet in-tandem, row = 1st mAb; competitor (2nd mAb) PR303394
Description: as §2

biotinylated CRH [14] = target: T5, biotinylated CRH; assay: Octet BLI, biotinylated CRH on SA sensor
human UCN2 peptide [15] = target: T3, human UCN2 peptide; assay: ELISA on streptavidin-captured hUCN2 (NT biotin) and hUCN2 (CT biotin), mAb at 100 nM and 10 nM, OD450
Description: as §1

hUCN1 (NT Biotin) [16] = target: T8, hUCN1 (NT Biotin); assay: ELISA on streptavidin-captured hUCN1 (NT biotin), OD450
Description: (§4) Streptavidin (Thermo, Cat: 21125) was diluted in PBS to a concentration of 2 μg/ml. 100 μl of diluted streptavidin was added per well to ELISA microplates, and the plates were incubated overnight at 4° C. […] 100 μL of 3,3′,5,5′-tetramethylbenzidine (TMB) substrate (Biopanda, Cat: TMB-S-003) was added, and the plates were incubated at room temperature for 15 minutes. 100 μL of ELISA stopping solution (Solarbio, Cat #: C1058) was added to terminate the reaction, and the optical density at 450 nm (OD450 nm) was determined by an ELISA plate reader (Molecular Devices, Spectra max 384 plus).

CRH (CT Biotin) [17] = target: T6, CRH (CT Biotin); assay: ELISA on streptavidin-captured CRH (CT biotin), OD450
Description: as §4

CRH (NT Biotin) [18] = target: T7, CRH (NT Biotin); assay: ELISA on streptavidin-captured CRH (NT biotin), OD450
Description: as §4

CRH (CT-Biotin) [19] = target: T11, CRH (CT-Biotin) (human and mouse, biotin on the added C-terminal K (-K-Biotin)); assay: ELISA, C-terminally biotinylated CRH on streptavidin-coated plate
T11 construct: also called Peptide 4 (CRH-Biotin); C-terminally biotinylated corticotropin-releasing hormone
T11 peptide: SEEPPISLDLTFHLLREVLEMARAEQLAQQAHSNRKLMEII
Description: as §4

CRH (CT-Biotin) [20] = target: T11, CRH (CT-Biotin); assay: ELISA on streptavidin-captured CRH (CT biotin), OD450
Description: as §4

CRH (NT-Biotin) [21] = target: T12, CRH (NT-Biotin) (human and mouse, not fully specified; biotin at the N-terminus); assay: ELISA on streptavidin-captured CRH (NT biotin), OD450
T12 construct: also called Biotin-CRH; N-terminally biotinylated corticotropin-releasing hormone
T12 peptide: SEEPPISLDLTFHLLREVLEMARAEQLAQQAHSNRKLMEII
Description: as §4

[22] = target: T13, corticotropin-releasing hormone (CRH) peptide (human and mouse, not fully specified); assay: cell-based or functional assay
T13 peptide: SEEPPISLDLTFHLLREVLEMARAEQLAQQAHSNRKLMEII

CRH (CT-Biotin) [23] = target: T11, CRH (CT-Biotin); assay: ELISA on streptavidin-captured CRH (CT biotin), OD450
Description: as §4

CRH (NT-Biotin) [24] = target: T12, CRH (NT-Biotin); assay: ELISA, N-terminally biotinylated CRH on streptavidin-coated plate
Description: as §4

CRH (NT-Biotin) [25] = target: T12, CRH (NT-Biotin); assay: ELISA on streptavidin-captured CRH (NT biotin), OD450
Description: as §4

B3: PR302309-18 (antibody, human IgG1, kappa, V domains shown)
VH: QVQLVQSGAEVKKPGASVKVSCKASGYTFTNYGMNWVRQAPGQRLEWMGWINTYTGEPIYTDDFKGRVTITRDTSASTAYMELSSLRSEDTAVYYCARSTMITTGGVFAYWGQGTLVTVSS
VL: DVVMTQSPLSLPVTLGQPASISCRSSQTIVHSDGNTYLEWYQQRPGQSPRLLIYKVSNRFSGVPDRFSGSGSGTDFTLKISRVEAEDLGVYYCFQGSHVPWTFGGGTKVEIKR
notes: Humanized variant of PR302309
EC50 (read off the curve) (hUCN1 (NT Biotin) [16]): ~0.1 nM
EC50 (read off the curve) (CRH (CT Biotin) [17]): ~0.03 nM
EC50 (N-Terminal CRH): 0.028 nM
binding result (human UCN3 peptide [11]): no binding (tested: 100 nM)
Kd (biotinylated CRH [14]): < 0.001 nM
koff (biotinylated CRH [14]): < 1e-07 s⁻¹
kon (biotinylated CRH [14]): 126000 M⁻¹ s⁻¹
EC50 (read off the curve) (CRH (NT Biotin) [18]): ~0.03 nM
binding result (human UCN2 peptide [15]): no binding (tested: 100 nM)

B4: PR004290 (antibody, human IgG1, kappa, V domains shown)
VH: EVQLVESGGVLVQPGGSLRLSCAASGFTFSSYWMTWVRQAPGKGLEWVANIKQDGSEKYYVDSVKGRFTISRDNAKNSLFLQMNSLRAEDTAVYYCARTLIFDYWGQGTLVTVSS
VL: DIVMTQSPLSLPVTPGEPASISCRSSQSLLHSTGYNSLEWYLQKPGQSPQLLIYLGSNRASGVPDRFSGSGSGTDFTLKISRVEAEDVGIYYCMQTLQTPITFGQGTRLEIKR
notes: Expressed recombinantly with human IgG1 wildtype Fc; also called Hybridoma Clone 28b3; Series 1 mAb
EC50 (CRH (CT-Biotin) [19]): 0.032 nM
EC50 (read off the curve) (CRH (CT-Biotin) [20]): ~0.03 nM
EC50 (read off the curve) (CRH (NT-Biotin) [21]): ~0.05 nM
hCRHR1 Reporter IC50 [22]: 3.69 nM
EC50 (read off the curve) (CRH (CT-Biotin) [23]): ~0.01 nM
EC50 (CRH (NT-Biotin) [24]): 0.029 nM
EC50 (read off the curve) (CRH (NT-Biotin) [25]): ~0.01 nM

Now from value to binder:

binding result (human UCN3 peptide [1]): no binding (tested: 100 nM)
potency on hUCN1-induced against CRH-induced hCRHR1 reporter activity (human UCN1 peptide): 267 fold lower
binding result (human UCN2 peptide [2]): no binding (tested: 100 nM)
B1: PR302341-55 (antibody, human IgG1, kappa, V domains shown)
VH: QVQLVQSGAEVKKPGASVKVSCKASGYTFTDYFMKWVRQAPGQRLEWMGVINPNNADIFYNQKFKGRVTITRDTSASTAYMELSSLRSEDTAVYYCARGTDRALFAYWGQGTLVTVSS
VL: DVVMTQSPLSLPVTLGQPASISCRSGQSIVHSDGNTYLEWYQQRPGQSPRLLIYKVSNRFSGVPDRFSGSGSGTDFTLKISRVEAEDLGVYYCFQGSHIPWTFGGGTKVEIKR
notes: Humanized, PTM-removed variant of PR302341

CHO-CRE-hCRHR1 0.5 nM CRH IC50 [3]: 1.7 nM
% Inhibition (biotinylated CRH [4]): 80%
EC50 (CRH (CT Biotin) [5]): 0.029 nM
EC50 (CRH (NT Biotin) [6]): 0.025 nM
EC50 (hUCN1 (NT Biotin) [7]): 0.126 nM
EC50 (hUCN1 (CT Biotin)): 1.88 nM
EC50 (N-Terminal CRH): 0.025 nM
% Inhibition (biotinylated CRH [8]): 76%
% Inhibition (biotinylated CRH [9]): 74%
% Inhibition (biotinylated CRH [10]): 76%
binding result (human UCN3 peptide [11]): no binding (tested: 100 nM)
% Inhibition (biotinylated CRH [12]): 65%
% Inhibition (biotinylated CRH [13]): 77%
Kd (biotinylated CRH [14]): 0.513 nM
koff (biotinylated CRH [14]): 0.000136 s⁻¹
kon (biotinylated CRH [14]): 266000 M⁻¹ s⁻¹
binding result (human UCN2 peptide [15]): no binding (tested: 100 nM)
B2: PR302309-8 (antibody, human IgG1, kappa, V domains shown)
VH: QIQLVQSGSELKKPGASVKVSCKASGYTFTNYGMNWVRQAPGQGLEWMGWINTYTGEPIYTDDFKGRFVFSLDTSVSTAYLQISSLKAEDTAVYYCSRSTMITTGGVFAYWGQGTLVTVSS
VL: DVVMTQSPLSLPVTLGQPASISCRSSQTIVHSDGNTYLEWYQQRPGQSPRLLIYKVSNRFSGVPDRFSGSGSGTDFTLKISRVEAEDLGVYYCFQGSHVPWTFGGGTKVEIKR
notes: Humanized variant of PR302309
